The record followed here is patent publication US20090130105A1 (Biogen, published 2009).

In the assay the target is T1, human IGF-1R(1-903)-Fc (human, UniProt P08069 31-933).
T1 construct: also called hIGF-1R-Fc; SDWT; not shown: human IgG1 Fc, C-terminal tag
The assay can be described thus: biolayer interferometry (Octet), IGF-1R Fc on Protein A sensors, scFv culture supernatant. More on the design: unit not given here. From the text: Individual transformed colonies were picked into deep-well 96 well dishes and processed for screening as described above. […] For off-rate analyses IGF-1R Fc was immobilized onto the surface of Protein A biosensors. […] ScFvs were allowed to bind to immobilized IGF-1R Fc for 300-seconds. Off-rate was subsequently assayed for 600 seconds.

T1 sequence (P08069 31-933): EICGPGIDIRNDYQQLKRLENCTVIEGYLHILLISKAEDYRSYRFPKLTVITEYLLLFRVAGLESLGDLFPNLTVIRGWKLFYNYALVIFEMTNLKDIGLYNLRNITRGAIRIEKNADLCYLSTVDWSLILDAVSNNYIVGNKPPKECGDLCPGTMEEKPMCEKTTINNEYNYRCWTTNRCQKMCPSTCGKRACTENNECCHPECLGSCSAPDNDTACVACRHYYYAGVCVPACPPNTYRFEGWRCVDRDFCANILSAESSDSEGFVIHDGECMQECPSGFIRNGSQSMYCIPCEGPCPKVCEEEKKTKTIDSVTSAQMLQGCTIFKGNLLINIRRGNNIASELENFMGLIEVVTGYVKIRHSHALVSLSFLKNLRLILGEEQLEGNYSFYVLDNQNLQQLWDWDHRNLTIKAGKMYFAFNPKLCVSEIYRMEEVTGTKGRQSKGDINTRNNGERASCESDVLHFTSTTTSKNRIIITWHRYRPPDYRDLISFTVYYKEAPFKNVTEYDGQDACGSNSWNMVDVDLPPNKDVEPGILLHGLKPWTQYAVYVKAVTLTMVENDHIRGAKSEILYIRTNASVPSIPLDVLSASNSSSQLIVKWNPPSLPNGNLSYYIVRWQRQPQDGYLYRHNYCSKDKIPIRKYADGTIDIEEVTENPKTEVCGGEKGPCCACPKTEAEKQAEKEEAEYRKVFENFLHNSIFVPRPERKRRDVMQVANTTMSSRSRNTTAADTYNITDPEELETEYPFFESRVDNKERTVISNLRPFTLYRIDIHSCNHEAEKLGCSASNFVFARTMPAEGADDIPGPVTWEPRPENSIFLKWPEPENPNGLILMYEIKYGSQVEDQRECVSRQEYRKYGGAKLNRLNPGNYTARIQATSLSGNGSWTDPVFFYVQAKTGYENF

B1: MJF033, C06 (VL/GS3/VH) scFv with VL T20R, R30N; VH S21E (scFv, name in Kabat numbering)
scFv: DIQMTQSPLSLSASVGDRVRITCQASRDINNYLNWYQQKPGKAPKLLIYDASSLQTGVPSRFGGSGSGTDFSFTIGSLQPEDIATYYCQQFDSLPHTFGQGTKLEIKGGGGSGGGGSGGGGSEVQLLESGGGLVQPGGSLRLECAASGFTFSIYRMQWVRQAPGKGLEWVSGISPSGGTTWYADSVKGRFTISRDNSKNTLYLQMNSLRAEDTAVYYCARWSGGSGYAFDIWGQGTMVTVSSDDDKSFLEQKLISEEDLNSAVDHHHHHH
notes: Kabat positions
B1: the “Kd (1/sec), off-rate as tabulated (XWU092 = 1.00)” value (“Kd (1/sec), off-rate as tabulated” below) turned out to be 0.78.

B2: MJF043, C06 (VL/GS3/VH) scFv with VL I83D (scFv)
scFv: DIQMTQSPLSLSASVGDRVTITCQASRDIRNYLNWYQQKPGKAPKLLIYDASSLQTGVPSRFGGSGSGTDFSFTIGSLQPEDDATYYCQQFDSLPHTFGQGTKLEIKGGGGSGGGGSGGGGSEVQLLESGGGLVQPGGSLRLSCAASGFTFSIYRMQWVRQAPGKGLEWVSGISPSGGTTWYADSVKGRFTISRDNSKNTLYLQMNSLRAEDTAVYYCARWSGGSGYAFDIWGQGTMVTVSSDDDKSFLEQKLISEEDLNSAVDHHHHHH
notes: Kabat positions
For the molecule B2, the “Kd (1/sec), off-rate as tabulated” value is 1.12.

B3: MJF040, C06 (VL/GS3/VH) scFv with VL I83M (scFv)
scFv: DIQMTQSPLSLSASVGDRVTITCQASRDIRNYLNWYQQKPGKAPKLLIYDASSLQTGVPSRFGGSGSGTDFSFTIGSLQPEDMATYYCQQFDSLPHTFGQGTKLEIKGGGGSGGGGSGGGGSEVQLLESGGGLVQPGGSLRLSCAASGFTFSIYRMQWVRQAPGKGLEWVSGISPSGGTTWYADSVKGRFTISRDNSKNTLYLQMNSLRAEDTAVYYCARWSGGSGYAFDIWGQGTMVTVSSDDDKSFLEQKLISEEDLNSAVDHHHHHH
notes: Kabat positions
Consider B3, for which the “Kd (1/sec), off-rate as tabulated” value worked out at 0.76.

B4: MJF042, C06 (VL/GS3/VH) scFv with VL S77G, I83G (scFv)
scFv: DIQMTQSPLSLSASVGDRVTITCQASRDIRNYLNWYQQKPGKAPKLLIYDASSLQTGVPSRFGGSGSGTDFSFTIGGLQPEDGATYYCQQFDSLPHTFGQGTKLEIKGGGGSGGGGSGGGGSEVQLLESGGGLVQPGGSLRLSCAASGFTFSIYRMQWVRQAPGKGLEWVSGISPSGGTTWYADSVKGRFTISRDNSKNTLYLQMNSLRAEDTAVYYCARWSGGSGYAFDIWGQGTMVTVSSDDDKSFLEQKLISEEDLNSAVDHHHHHH
notes: Kabat positions
In the case of B4, the “Kd (1/sec), off-rate as tabulated” value is 0.55.

B5: MJF034, C06 (VL/GS3/VH) scFv with VL A51G (scFv)
scFv: DIQMTQSPLSLSASVGDRVTITCQASRDIRNYLNWYQQKPGKAPKLLIYDGSSLQTGVPSRFGGSGSGTDFSFTIGSLQPEDIATYYCQQFDSLPHTFGQGTKLEIKGGGGSGGGGSGGGGSEVQLLESGGGLVQPGGSLRLSCAASGFTFSIYRMQWVRQAPGKGLEWVSGISPSGGTTWYADSVKGRFTISRDNSKNTLYLQMNSLRAEDTAVYYCARWSGGSGYAFDIWGQGTMVTVSSDDDKSFLEQKLISEEDLNSAVDHHHHHH
notes: Kabat positions
Take B5: the “Kd (1/sec), off-rate as tabulated” value was 0.81.

B6: MJF047, C06 (VL/GS3/VH) scFv with VL I83G (scFv)
scFv: DIQMTQSPLSLSASVGDRVTITCQASRDIRNYLNWYQQKPGKAPKLLIYDASSLQTGVPSRFGGSGSGTDFSFTIGSLQPEDGATYYCQQFDSLPHTFGQGTKLEIKGGGGSGGGGSGGGGSEVQLLESGGGLVQPGGSLRLSCAASGFTFSIYRMQWVRQAPGKGLEWVSGISPSGGTTWYADSVKGRFTISRDNSKNTLYLQMNSLRAEDTAVYYCARWSGGSGYAFDIWGQGTMVTVSSDDDKSFLEQKLISEEDLNSAVDHHHHHH
notes: Kabat positions
In the case of B6, the “Kd (1/sec), off-rate as tabulated” value turned out to be 1.44.

B7: MJF048, C06 (VL/GS3/VH) scFv with VH R83K (scFv, name in Kabat numbering)
scFv: DIQMTQSPLSLSASVGDRVTITCQASRDIRNYLNWYQQKPGKAPKLLIYDASSLQTGVPSRFGGSGSGTDFSFTIGSLQPEDIATYYCQQFDSLPHTFGQGTKLEIKGGGGSGGGGSGGGGSEVQLLESGGGLVQPGGSLRLSCAASGFTFSIYRMQWVRQAPGKGLEWVSGISPSGGTTWYADSVKGRFTISRDNSKNTLYLQMNSLKAEDTAVYYCARWSGGSGYAFDIWGQGTMVTVSSDDDKSFLEQKLISEEDLNSAVDHHHHHH
notes: Kabat positions
For the molecule B7, the “Kd (1/sec), off-rate as tabulated” value is 1.37.

B8: MJF051, C06 (VL/GS3/VH) scFv with VL S77G, I83Q (scFv)
scFv: DIQMTQSPLSLSASVGDRVTITCQASRDIRNYLNWYQQKPGKAPKLLIYDASSLQTGVPSRFGGSGSGTDFSFTIGGLQPEDQATYYCQQFDSLPHTFGQGTKLEIKGGGGSGGGGSGGGGSEVQLLESGGGLVQPGGSLRLSCAASGFTFSIYRMQWVRQAPGKGLEWVSGISPSGGTTWYADSVKGRFTISRDNSKNTLYLQMNSLRAEDTAVYYCARWSGGSGYAFDIWGQGTMVTVSSDDDKSFLEQKLISEEDLNSAVDHHHHHH
notes: Kabat positions
Turning to B8, the “Kd (1/sec), off-rate as tabulated” value came to 1.1.

B9: MJF039, C06 (VL/GS3/VH) scFv with VL T20R, R30N, G63S, S72N (scFv)
scFv: DIQMTQSPLSLSASVGDRVRITCQASRDINNYLNWYQQKPGKAPKLLIYDASSLQTGVPSRFSGSGSGTDFNFTIGSLQPEDIATYYCQQFDSLPHTFGQGTKLEIKGGGGSGGGGSGGGGSEVQLLESGGGLVQPGGSLRLSCAASGFTFSIYRMQWVRQAPGKGLEWVSGISPSGGTTWYADSVKGRFTISRDNSKNTLYLQMNSLRAEDTAVYYCARWSGGSGYAFDIWGQGTMVTVSSDDDKSFLEQKLISEEDLNSAVDHHHHHH
notes: Kabat positions
For the molecule B9, the “Kd (1/sec), off-rate as tabulated” value was 0.56.

B10: MJF037, C06 (VL/GS3/VH) scFv with VL S72Y (scFv)
scFv: DIQMTQSPLSLSASVGDRVTITCQASRDIRNYLNWYQQKPGKAPKLLIYDASSLQTGVPSRFGGSGSGTDFYFTIGSLQPEDIATYYCQQFDSLPHTFGQGTKLEIKGGGGSGGGGSGGGGSEVQLLESGGGLVQPGGSLRLSCAASGFTFSIYRMQWVRQAPGKGLEWVSGISPSGGTTWYADSVKGRFTISRDNSKNTLYLQMNSLRAEDTAVYYCARWSGGSGYAFDIWGQGTMVTVSSDDDKSFLEQKLISEEDLNSAVDHHHHHH
notes: Kabat positions
Regarding B10, the “Kd (1/sec), off-rate as tabulated” value worked out at 0.76.

B11: MJF035, C06 (VL/GS3/VH) scFv with VL S72N (scFv)
scFv: DIQMTQSPLSLSASVGDRVTITCQASRDIRNYLNWYQQKPGKAPKLLIYDASSLQTGVPSRFGGSGSGTDFNFTIGSLQPEDIATYYCQQFDSLPHTFGQGTKLEIKGGGGSGGGGSGGGGSEVQLLESGGGLVQPGGSLRLSCAASGFTFSIYRMQWVRQAPGKGLEWVSGISPSGGTTWYADSVKGRFTISRDNSKNTLYLQMNSLRAEDTAVYYCARWSGGSGYAFDIWGQGTMVTVSSDDDKSFLEQKLISEEDLNSAVDHHHHHH
notes: Kabat positions
For the molecule B11, the “Kd (1/sec), off-rate as tabulated” value worked out at 0.54.

B12: MJF049, C06 (VL/GS3/VH) scFv with VH R83T (scFv, name in Kabat numbering)
scFv: DIQMTQSPLSLSASVGDRVTITCQASRDIRNYLNWYQQKPGKAPKLLIYDASSLQTGVPSRFGGSGSGTDFSFTIGSLQPEDIATYYCQQFDSLPHTFGQGTKLEIKGGGGSGGGGSGGGGSEVQLLESGGGLVQPGGSLRLSCAASGFTFSIYRMQWVRQAPGKGLEWVSGISPSGGTTWYADSVKGRFTISRDNSKNTLYLQMNSLTAEDTAVYYCARWSGGSGYAFDIWGQGTMVTVSSDDDKSFLEQKLISEEDLNSAVDHHHHHH
notes: Kabat positions
Turning to B12, the “Kd (1/sec), off-rate as tabulated” value turned out to be 1.41.

B13: MJF038, C06 (VL/GS3/VH) scFv with VL G63S, S72N (scFv)
scFv: DIQMTQSPLSLSASVGDRVTITCQASRDIRNYLNWYQQKPGKAPKLLIYDASSLQTGVPSRFSGSGSGTDFNFTIGSLQPEDIATYYCQQFDSLPHTFGQGTKLEIKGGGGSGGGGSGGGGSEVQLLESGGGLVQPGGSLRLSCAASGFTFSIYRMQWVRQAPGKGLEWVSGISPSGGTTWYADSVKGRFTISRDNSKNTLYLQMNSLRAEDTAVYYCARWSGGSGYAFDIWGQGTMVTVSSDDDKSFLEQKLISEEDLNSAVDHHHHHH
notes: Kabat positions
As to B13, the “Kd (1/sec), off-rate as tabulated” value was determined as 0.76.

B14: MJF050, C06 (VL/GS3/VH) scFv with VH T110V (scFv, name in Kabat numbering)
scFv: DIQMTQSPLSLSASVGDRVTITCQASRDIRNYLNWYQQKPGKAPKLLIYDASSLQTGVPSRFGGSGSGTDFSFTIGSLQPEDIATYYCQQFDSLPHTFGQGTKLEIKGGGGSGGGGSGGGGSEVQLLESGGGLVQPGGSLRLSCAASGFTFSIYRMQWVRQAPGKGLEWVSGISPSGGTTWYADSVKGRFTISRDNSKNTLYLQMNSLRAEDTAVYYCARWSGGSGYAFDIWGQGTMVVVSSDDDKSFLEQKLISEEDLNSAVDHHHHHH
notes: Kabat positions
Turning to B14, the “Kd (1/sec), off-rate as tabulated” value amounted to 1.68.
